From article PMC11276767

Molecular target: Ca2+
Test: in situ Ca2+ titration of FRET with mNGΔN5-SOAR1L
Settings: 25 µM digitonin, 10 µM ionomycin, EGTA

A Kd (cells transfected with CasRx-P4HB (P4HB knockdown), Hill n 2.8±0.09) of 740 µM, a Kd (cells transfected with CasRx-PDIA3 (PDIA3 knockdown), Hill n 2.8±0.12) of 750 µM and a Kd (cells transfected with control CasRx, Hill n 2.7±0.12) of 760 µM were found for STIM1 1-310-CFPΔC11 C49A; C56A in this work.
